Data reported in paper PMC10057847, “Precision engineering of biological function with large-scale measurements and machine learning” (PLOS ONE, 2023).
Changes are numbered by the printed parent chain. Names and notes keep the numbering of the source.

B1: pVER-IPTG-003: LacI variant: V52M H74Y V119I G200V R207H L262M K290R Q306H A337V Q352* (protein, UniProt P03023 1-360, looked up, variant V52M H74Y V119I G200V R207H L262M K290R Q306H A337V Q352*)
Lactose operon repressor: MKPVTLYDVAEYAGVSYQTVSRVVNQASHVSAKTREKVEAAMAELNYIPNRMAQQLAGKQSLLIGVATSSLALYAPSQIVAAIKSRADQLGASVVVSMVERSGVEACKAAVHNLLAQRISGLIINYPLDDQDAIAVEAACTNVPALFLDVSDQTPINSIIFSHEDGTRLGVEHLVALGHQQIALLAGPLSSVSARLRLAVWHKYLTHNQIQPIAEREGDWSAMSGFQQTMQMLNEGIVPTAMLVANDQMALGAMRAITESGMRVGADISVVGYDDTEDSSCYIPPLTTIRQDFRLLGQTSVDRLLHLSQGQAVKGNQLLPVSLVKRKTTLAPNTQTVSPRALADSLMQLARVSRLESGQ
B2: pVER-IPTG-WT(I83M): LacI variant: I83M (protein, UniProt P03023 1-360, looked up, variant I83M)
Lactose operon repressor: MKPVTLYDVAEYAGVSYQTVSRVVNQASHVSAKTREKVEAAMAELNYIPNRVAQQLAGKQSLLIGVATSSLALHAPSQIVAAMKSRADQLGASVVVSMVERSGVEACKAAVHNLLAQRVSGLIINYPLDDQDAIAVEAACTNVPALFLDVSDQTPINSIIFSHEDGTRLGVEHLVALGHQQIALLAGPLSSVSARLRLAGWHKYLTRNQIQPIAEREGDWSAMSGFQQTMQMLNEGIVPTAMLVANDQMALGAMRAITESGLRVGADISVVGYDDTEDSSCYIPPLTTIKQDFRLLGQTSVDRLLQLSQGQAVKGNQLLPVSLVKRKTTLAPNTQTASPRALADSLMQLARQVSRLESGQ
B3: pVER-IPTG-WT(L56M/A194V): LacI variant: L56M A194V (protein, UniProt P03023 1-360, looked up, variant L56M A194V)
Lactose operon repressor: B2 Lactose operon repressor with L56M, M83I, A194V
B4: pVER-IPTG-WT(L56M/D130E): LacI variant: L56M D130E (protein, UniProt P03023 1-360, looked up, variant L56M D130E)
Lactose operon repressor: B2 Lactose operon repressor with L56M, M83I, D130E

System: eYFP under the control of the lactose operator (lacO)
Experiment: in vivo dose-response curves of LacI variants to IPTG measured with flow cytometry (eYFP output), fit to the Hill equation
Assay type: cell-based, E. coli
Settings: Hill fit of cytometry data; for n: the Hill coefficient: IPTG dose-response; for log_ginf: the base-10 logarithm of G∞ (in MEF): saturating output
Experimental: Dose-response curves were measured with flow cytometry using E. coli MG1655Δlac transformed with variants of the pVER plasmid, described previously. The plasmid contained different variants of the lacI coding DNA sequence (CDS), as described in the text, and an expression cassette with enhanced yellow fluorescent protein (eYFP) under the control of the lactose operator (lacO). The lacI CDS was verified with Sanger sequencing for each variant.
All cultures were grown in a rich M9 media (3 g/L KH2PO4, 6.78 g/L Na2HPO4, 0.5 g/L NaCl, 1 g/L NH4Cl, 0.1 mmol/L CaCl2, 2 mmol/L MgSO4, 4% glycerol, and 20 g/L casamino acids) supplemented with 50 μg/mL kanamycin.
For flow cytometry measurements, E. coli cultures were grown in a laboratory automation system that included an automated liquid handler (Hamilton, STAR), an automated plate sealer (4titude, a4S), an automated de-sealer (Brooks, XPeel), and two multi-mode plate readers (BioTek, Neo2SM).
Cultures were grown in clear polystyrene 96-well plates with 1.1 mL square wells (4titude, 4ti-0255). The culture volume per well was 0.5 mL. Before incubation, each 96-well growth plate was sealed by the automated plate sealer with a gas permeable membrane (4titude, 4ti-0598). Growth plates were incubated in one of the multi-mode plate readers at 37°C with a 1°C gradient applied from the bottom to the top of the incubation chamber to minimize condensation on the inside of the membrane. The plate readers were set for double-orbital shaking at 807 cycles per minute. Optical density at 600 nm (OD600) was measured every 5 minutes during incubation, with continuous shaking applied between measurements (optical density at 700 nm and YFP fluorescence were also measured every 5 minutes). After incubation, the automated de-sealer was used to remove the gas-permeable membrane from each 96-well plate to enable automated passaging of cultures and sample preparation for flow cytometry measurements.
For each measurement, starter cultures were prepared from glycerol freezer stock in 5 mL of rich M9 media in a 14 mL snap-cap culture tubes. Starter cultures were incubated at 37°C with orbital shaking at 300 rpm for between 4 h and 24 h prior to loading the automation system. The automation system then prepared 96-well growth plates, sealed and de-sealed the growth plates, incubated the growth plates, and prepared flow cytometry sample plates. The automated culture protocol consisted of the following steps: […]

| Molecule | n: the Hill coefficient | log_g0: the base-10 logarithm of G0 (in MEF) (basal output, posterior mean, value is log10) [MEF] | log_ginf: the base-10 logarithm of G∞ (in MEF) (posterior mean, value is log10) [MEF] |
| --- | --- | --- | --- |
| B1 | 0.7133 | 4.508 | 3.573 |
| B2 |  |  | 4.268 |
| B3 | 1.42 |  |  |
| B4 | 1.42 |  |  |
